PMC5869024
Like-named read-outs stand apart in the source and are kept apart here.

Tests used:
[1] = biological target: CXCR1 extracellular loop peptide two linked extracellular loops (Homo sapiens) (UniProt P25024); settings: cited from earlier work
ND-CXCR1(1–38) [2] = biological target: ND-CXCR1(1–38) (UniProt P25024); assay: ITC
[3] = biological target: 1TM-CXCR1(1–72) reconstituted in nanodiscs (UniProt P25024); assay: ITC
ND-CXCR1(1–38) [4] = biological target: ND-CXCR1(1–38) (UniProt P25024); assay: ITC; remark: listed apart in the source

Chain of ND-CXCR1(1–38) (P25024 1-38 C30S): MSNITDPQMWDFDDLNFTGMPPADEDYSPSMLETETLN
Chain of 1TM-CXCR1(1–72) reconstituted in nanodiscs (P25024 1-72 C30S): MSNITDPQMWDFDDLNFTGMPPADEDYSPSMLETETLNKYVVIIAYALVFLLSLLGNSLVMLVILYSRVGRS
Chain of CXCR1 extracellular loop peptide two linked extracellular loops (Homo sapiens) (P25024 whole entry): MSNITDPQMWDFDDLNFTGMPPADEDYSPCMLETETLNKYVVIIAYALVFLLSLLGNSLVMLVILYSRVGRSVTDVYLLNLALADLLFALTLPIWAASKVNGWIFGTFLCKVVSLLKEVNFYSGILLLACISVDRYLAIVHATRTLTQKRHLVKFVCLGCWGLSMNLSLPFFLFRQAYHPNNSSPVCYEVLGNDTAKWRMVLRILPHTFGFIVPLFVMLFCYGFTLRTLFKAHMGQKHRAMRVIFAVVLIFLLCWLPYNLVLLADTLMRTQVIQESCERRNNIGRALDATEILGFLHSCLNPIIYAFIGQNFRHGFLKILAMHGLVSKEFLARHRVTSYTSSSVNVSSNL
Chain of IL-8 (P10145 28-99): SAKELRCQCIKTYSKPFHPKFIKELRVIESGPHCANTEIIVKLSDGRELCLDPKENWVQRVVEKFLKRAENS

For IL-8 (from UniProt P10145), the Kd [1] is given as 0.5 µM.

“monomeric Interleukin-8 IL-8(1–66) (ligand)” gave a Kd (ND-CXCR1(1–38) [2]) of 3.2 µM, a Kd [3] of 12.5 µM and a dH [3] of -3.1 kcal/mol. For the same substance, the Kd (ND-CXCR1(1–38) [4]) was 3.5 µM and the dH (ND-CXCR1(1–38) [4]) was -3.2 kcal/mol.
